Measured values: paper PMC8649762, “A Hyperthermoactive-Cas9 Editing Tool Reveals the Role of a Unique Arsenite Methyltransferase in the Arsenic Resistance System of Thermus thermophilus HB27” (mBio, 2021)
Like-named read-outs stand apart in the source and are kept apart here.

Columns and labels:
TtSmtB-TtArsM complex = biological target: T1, TtSmtB-TtArsM complex (Thermus thermophilus, UniProt Q72KG0); format: binding; conditions: 1:100 protein/arsenic ratio, arsenite preincubated with TtSmtB 10 min at 60 °C, co-IP buffer pH 7.5, weakens the protein-protein complex
T1 construct: gene smtB; recombinant TtSmtB (E. coli, C-terminal His tag removed) plus C-terminally His-tagged TtArsM; with Arsenite methyltransferase (ArsR family transcriptional regulator / SAM-dependent methyltransferase domain protein)

[1] = biological target: T2, TtArsM (Thermus thermophilus HB27) (UniProt Q72LF0); assay: EMSA; conditions: EMSA: 20 ng parsM, 1 ug poly(dI-dC), SYBR Gold stain; buffer, salt, pH and temperature as in previous work (refs 23, 62), not given
T2 sequence: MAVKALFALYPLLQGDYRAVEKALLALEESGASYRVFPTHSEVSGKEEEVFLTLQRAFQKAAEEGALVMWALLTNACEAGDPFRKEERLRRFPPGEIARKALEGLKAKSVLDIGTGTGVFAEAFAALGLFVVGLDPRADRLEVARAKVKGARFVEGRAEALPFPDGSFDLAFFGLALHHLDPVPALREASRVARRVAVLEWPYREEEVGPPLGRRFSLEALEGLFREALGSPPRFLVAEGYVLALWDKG

TtArsM (TTC0109) = biological target: T3, TtArsM (TTC0109) (Thermus thermophilus, UniProt Q72LF0); assay: coupled colorimetric SAH-release methyltransferase assay, […] nm; products by GC-MS; format: biochemical; conditions: methyl donor; same
T3 construct: gene TT_C0109; full-length, C-terminal His tag (pET30b NdeI/HindIII), E. coli BL21-CodonPlus(DE3)-RIL
T3 sequence (Q72LF0 1-249): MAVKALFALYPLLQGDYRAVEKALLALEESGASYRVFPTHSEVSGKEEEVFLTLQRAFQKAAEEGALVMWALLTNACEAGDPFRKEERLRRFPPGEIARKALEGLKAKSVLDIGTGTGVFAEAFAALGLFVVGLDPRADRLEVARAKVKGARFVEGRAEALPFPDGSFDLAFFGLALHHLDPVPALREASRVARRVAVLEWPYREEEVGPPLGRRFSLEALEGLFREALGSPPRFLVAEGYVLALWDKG

[2] = biological target: the molecule itself; assay: SEC; 500 μg purified TtArsM on analytical Superdex PC75, 50 mM Tris-HCl pH 7.5, 0.2 M KCl; calibrated with gel filtration markers
[3] = biological target: T4, Recombinant TtSmtB with the His tag removed (Thermus thermophilus HB27, UniProt Q72KG0 1-123); assay: co-IP; 5 μg TtSmtB (His tag removed) and 5 μg His-tagged TtArsM in co-IP buffer (50 mM Tris-HCl pH 7.5, 150 mM NaCl, 10% glycerol, 0.1% Triton X-100), 4°C, 2 h; immunoprecipitated with anti-TtSmtB antibodies and protein A-Sepharose, blot with anti-His; with or without arsenite, arsenate, cadmium or antimony at 1:0, 1:25, 1:50, 1:100 molar ratios preincubated with TtSmtB; conditions: both partners purified
T4 construct: TtSmtB, ArsR/SmtB family transcriptional repressor of Thermus thermophilus HB27; source: E. coli BL21-CodonPlus (DE3)-RIL, pET28/TtsmtB, purified; His tag removed; not shown: His tag, C-terminal, cleaved
T4 sequence (looked up): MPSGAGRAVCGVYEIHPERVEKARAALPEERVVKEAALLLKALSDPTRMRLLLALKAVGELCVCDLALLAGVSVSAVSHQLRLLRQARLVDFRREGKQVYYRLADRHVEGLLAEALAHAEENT

Molecule: O[As](O)O [arsenite]
- fold decrease in complex band intensity (TtSmtB-TtArsM complex): up to 3

Molecule: GGAAGGGGAAGCGGTGTTTCTCGCCCCCGAGGCCAATCCCCCCTACGAGGAGGCGGACCAGGCGGGAAGGCGCGCGGGGAACCGCCCCGCCCTATACTTGGGGAGATG (double strand) [parsM]
- binding [1]: no binding

Molecule: C[S+](CC[C@H](N)C(=O)O)C[C@H]1O[C@@H](n2cnc3c(N)ncnc32)[C@H](O)[C@@H]1O (some centres unmarked) [SAM]
- coupled colorimetric SAH-release methyltransferase assay, 510 nm; products by GC (TtArsM (TTC0109)): formation of S-adenosylhomocysteine (SAH) from SAM after transfer of methyl group(s) on the substrate

Molecule: O=[As](O)(O)O [arsenate]
- fold decrease in complex band intensity (TtSmtB-TtArsM complex; with arsenate): up to 3

B1: Recombinant C-terminal His-tagged TtArsM (TTC0109) (enzyme, Thermus thermophilus HB27, UniProt Q72LF0 1-249, looked up)
chain: MAVKALFALYPLLQGDYRAVEKALLALEESGASYRVFPTHSEVSGKEEEVFLTLQRAFQKAAEEGALVMWALLTNACEAGDPFRKEERLRRFPPGEIARKALEGLKAKSVLDIGTGTGVFAEAFAALGLFVVGLDPRADRLEVARAKVKGARFVEGRAEALPFPDGSFDLAFFGLALHHLDPVPALREASRVARRVAVLEWPYREEEVGPPLGRRFSLEALEGLFREALGSPPRFLVAEGYVLALWDKG
notes: TtArsM (TTC0109) of Thermus thermophilus HB27; TtarsM gene PCR amplified from the genome and cloned NdeI/HindIII into pET30b(+); predicted mass 29.1 kDa; source: E. coli BL21-CodonPlus (DE3)-RIL, pET30b(+)/TtarsM, purified (HisTrap); not shown: His tag, C-terminal, kept
- stoichiometry N [2]: 2
- fold decrease of the co-IP band with arsenate (1:100 protein/arsenic ratio) against the complex without metal [3]: ≤ 3 fold
- fold decrease of the co-IP band with arsenite (1:100 protein/arsenic ratio) against the complex without metal [3]: ≤ 3 fold
- fold increase of the co-IP band with cadmium against the complex without metal [3]: ≤ 2 fold
